Consider ten molecules from patent publication US20110195022A1 (IMMUNOGEN, published 2011).

Experiment [1] has as its target T1, CD20-A170S P172S variant (human, UniProt P11836 1-297).
T1 construct: whole, on cells; also called CD20-AP; CD20AP
T1 sequence (looked up): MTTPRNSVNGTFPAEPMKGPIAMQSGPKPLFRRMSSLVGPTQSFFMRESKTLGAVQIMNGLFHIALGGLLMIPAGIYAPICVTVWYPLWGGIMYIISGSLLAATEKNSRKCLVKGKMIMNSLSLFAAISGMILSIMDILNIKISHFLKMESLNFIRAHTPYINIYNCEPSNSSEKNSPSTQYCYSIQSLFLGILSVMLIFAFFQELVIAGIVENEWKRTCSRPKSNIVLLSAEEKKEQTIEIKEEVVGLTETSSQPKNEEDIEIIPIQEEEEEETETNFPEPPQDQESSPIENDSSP
Put plainly: flow cytometry, 300-19 cells transfected with CD20-A170S P172S, MFI against antibody concentration.

In experiment [2] the target is T1, CD20-A170S P172S variant. The experiment is described as above. The source holds these as a separate data set.
The target of experiment [3] is T2, human CD20 (human, UniProt P11836 1-297).
T2 sequence (looked up): T1 sequence (looked up) with S170A, S172P
Put plainly: cell-based or functional assay.

Experiment [4] concerns the target T2, human CD20. The experiment can be described thus: flow cytometry titration on BJAB cells, apparent Kd from the dose-response curve.
Protocol: (§1) Data analysis was performed using CellQuest Pro (BD Biosciences, San Diego, US) and for each sample the mean fluorescence intensity for FL1 (MFI) was exported and plotted against the antibody concentration in a semi-log plot.
The value for the apparent dissociation constant (Kd) of each antibody was calculated using GraphPad Prism v4 (GraphPad software, San Diego, Calif.).
In experiment [5] the target is T2, human CD20. Put plainly: flow cytometry titration on BJAB cells, apparent Kd from the binding curve.
Protocol: as §1
Experiment [6] deals with T2, human CD20. The experiment can be described thus: cell-based or functional assay. This is another data set of the same source.
Experiment [7] deals with T2, human CD20. The experiment can be described thus: flow cytometry, BJAB cells, MFI against antibody concentration.
Protocol: as §1
For experiment [8], the target named is T2, human CD20. The experiment can be described thus: flow cytometry, 300-19 cells transfected with wild type human CD20, MFI against antibody concentration.

Positions count from the first letter of the chain named. Where “and” joins values, the source holds several entries; their conditions need not be identical. Identical values can stand only once. Like-named read-outs stand apart in the source and are kept apart here.

B1: 2F2 (antibody, V domains shown)
VH: EVQLVESGGGLVQPGRSLRLSCAASGFTFNDYAMHWVRQAPGKGLEWVSTISWNSGSIGYADSVKGRFTISRDNAKKSLYLQMNSLRAEDTALYYCAKDIQYGNYYYGMDVWGQGTTVTVSS
VL: EIVLTQSPATLSLSPGERATLSCRASQSVSSYLAWYQQKPGQAPRLLIYDASNRATGIPARFSGSGSGTDFTLTISSLEPEDFAVYYCQQRSNWPITFGQGTRLEIK
On to B1, for which the half-maximal effective concentration (EC50 (read off the curve)) in experiment [1] is roughly 4 nM; in experiment [2], roughly 2 nM.

B2: rituximab (antibody, V domains shown)
VH: QVQLQQPGAELVKPGASVKMSCKASGYTFTSYNMHWVKQTPGRGLEWIGAIYPGNGDTSYNQKFKGKATLTADKSSSTAYMQLSSLTSEDSAVYYCARSTYYGGDWYFNVWGAGTTVTVSA
VL: QIVLSQSPAILSASPGEKVTMTCRASSSVSYIHWFQQKPGSSPKPWIYATSNLASGVPVRFSGSGSGTSYSLTISRVEAEDAATYYCQQWTSNPPTFGGGTKLEIK
Regarding B2, in experiment [3], the “EC50 of ADCC, DOHH-2 cells, human NK cells, LDH release” value turned out to be 1.08 ng/mL; the “EC50 of ADCC, Granta-519 cells, human NK cells, LDH release” value (“EC50 of ADCC, Granta-519 cells” for short) came to 1.23 ng/mL; the “EC50 of ADCC, JVM-13 cells, human NK cells, LDH release” value worked out at 0.29 ng/mL; the “EC50 of ADCC, Ramos cells, human NK cells, LDH release” value stood at 3.5 ng/mL. In addition, in experiment [3], the “EC50 of ADCC, SU-DHL-4 cells, human NK cells, LDH release” value (“EC50 of ADCC, SU-DHL-4 cells” for short) came out at 0.53 ng/mL; the “EC50 of CDC, Daudi cells, 5% human complement” value stood at 300 ng/mL; the “EC50 of CDC, Raji cells, 5% human complement” value came to 110 ng/mL; the “EC50 of CDC, Ramos cells, 5% human complement” value was 60 ng/mL. In addition, in experiment [3], the “EC50 of CDC, SU-DHL-4 cells, 5% human complement” value amounted to 310 ng/mL; the “EC50 of CDC, WSU-DLCL-2 cells, 5% human complement” value was 350 ng/mL and 190 ng/mL.

B3: chCD20-4 (antibody, V domains shown)
VH: EVKVEESGGGLVKTGGSMKLSCVASGFSFNNYWMNWVRQSPEKGLEWVAEIRLKSNNYATHYVESVKGRFTISRDDSKSSVYLQMNNLRAEDTGIYYCTGWDDYAMDHWGQGISVTVSS
VL: DIVMTQSQKFMSTSVGDRVSVNCKASQNVGTNVAWYQQKPRQSPKGLIYSASFRYSGVPDRFTGSGSGTDFTLTIFNVQSDDLAEYFCQQYNNYPLTFGGGTKLEIKR
notes: Chimeric antibody: murine CD20-4 variable regions cloned in frame with human constant regions (plasmids pchCD20-4HCN and pchCD20-4LCZ), expressed in HEK-293T; the murine VL/VH entries 5 and 6 are used; a huIgG1 isotype control was used beside it; also called chimeric CD20-4
Turning to B3, in experiment [3], the “EC50 of CDC, WSU-DLCL-2 cells, 5% human complement” value was 27 ng/mL. In addition, in experiment [4], the Kd amounted to 0.47 nM.

B4: huCD20-4-SMCC-DM1 (antibody, human IgG1, kappa, V domains shown)
VH: B3 VH with K3Q, K13Q, T14P, K19R, E42G, E64D
VL: B3 VL with V3Q, Q8P, K9S, F10T, R41G, Q42K, D60S, S80P
modifications: DM1 linked through SMCC (thioether), 3.5-4 DM1 molecules per antibody; sites not stated
notes: also called huCD20-4-MCC-DM1
Consider B4, for which the Kd in experiment [5] came to 0.9 nM. Besides, in experiment [3], the “EC50 of ADCC, Granta-519 cells” value is 0.28 ng/mL; the “EC50 of ADCC, SU-DHL-4 cells” value stood at 0.27 ng/mL; the “EC50 of CDC, Daudi cells, 5% human complement” value was roughly 80 ng/mL; the “EC50 of CDC, WSU-DLCL-2 cells, 5% human complement” value was roughly 40 ng/mL. In experiment [3], the “EC50 of in vitro cytotoxicity (WST-8), Daudi cells” value (shortened to “EC50 … (WST-8), Daudi cells”) stood at 0.21 nM; the “EC50 of in vitro cytotoxicity (WST-8), Ramos cells” value (shortened to “EC50 … (WST-8), Ramos cells”) was 0.22 nM and 0.35 nM. Moreover, in experiment [6], the “EC50 of in vitro cytotoxicity (WST-8), DOHH-2 cells” value was 0.11 nM; the “EC50 … (WST-8), Daudi cells” value amounted to 0.29 nM; the “EC50 of in vitro cytotoxicity (WST-8), Granta-519 cells” value was 0.03 nM; the “EC50 … (WST-8), Ramos cells” value was 0.54 nM. Moreover, the “EC50 of in vitro cytotoxicity (WST-8), SC-1 cells” value in experiment [6] came out at 0.6 nM.

B5: huCD20-4-SPDB-DM4 (antibody, human IgG1, kappa, V domains shown)
VH: B3 VH with K3Q, K13Q, T14P, K19R, E42G, E64D
VL: B3 VL with V3Q, Q8P, K9S, F10T, R41G, Q42K, D60S, S80P
modifications: DM4 linked through SPDB (disulfide), 3.5-4 DM4 molecules per antibody; sites not stated
As for B5, in experiment [3], the “EC50 of CDC, WSU-DLCL-2 cells, 5% human complement” value is roughly 40 ng/mL; the “EC50 … (WST-8), Daudi cells” value was 0.19 nM; the “EC50 … (WST-8), Ramos cells” value turned out to be 0.39 nM.

B6: huCD20-4 (antibody, human IgG1, kappa, V domains shown)
VH: B3 VH with K3Q, K13Q, T14P, K19R, E42G, E64D
VL: B3 VL with V3Q, Q8P, K9S, F10T, R41G, Q42K, D60S, S80P
notes: Resurfaced antibody expressed in HEK-293T cells; also called humanized CD20-4; resurfaced CD20-4
Take B6: in experiment [5], the Kd worked out at 1 nM. Besides, in experiment [7], the 50% effective concentration (EC50 (read off the curve)) is roughly 0.6 nM. Also, the “EC50 (read off the curve)” value in experiment [8] is roughly 1 nM. In experiment [3], the “EC50 of ADCC, DOHH-2 cells, human NK cells, LDH release” value is 0.57 ng/mL; the “EC50 of ADCC, Granta-519 cells” value is 0.28 ng/mL and 0.29 ng/mL; the “EC50 of ADCC, JVM-13 cells, human NK cells, LDH release” value was determined as 0.097 ng/mL; the “EC50 of ADCC, Ramos cells, human NK cells, LDH release” value turned out to be 0.4 ng/mL. Moreover, in experiment [3], the “EC50 of ADCC, SU-DHL-4 cells” value amounted to 0.2 ng/mL; the “EC50 of ADCC, WSU-DLCL-2 cells, human NK cells, LDH release” value worked out at 0.4 ng/mL; the “EC50 of CDC, Daudi cells, 5% human complement” value is 50 ng/mL and ~50 ng/mL; the “EC50 of CDC, Raji cells, 5% human complement” value amounted to 32 ng/mL. Further, in experiment [3], the “EC50 of CDC, Ramos cells, 5% human complement” value worked out at 10 ng/mL; the “EC50 of CDC, SU-DHL-4 cells, 5% human complement” value is 30 ng/mL; the “EC50 of CDC, WSU-DLCL-2 cells, 5% human complement” value was roughly 40 ng/mL. In addition, the Kd in experiment [4] came out at 0.46 nM. In addition, the binding result in experiment [2] is recorded as “no binding (tested: 1e-7 M)”.

B7: muCD20-4 (antibody, mouse IgG2a, kappa, V domains shown)
VH: B3 VH
VL: B3 VL
notes: Murine monoclonal antibody purified from hybridoma supernatant (ATCC PTA-10485 or PTA-10561); also called murine CD20-4
As for B7, the Kd in experiment [4] came out at 0.97 nM.

B8: huCD20-4-SPP-DM1 (antibody, human IgG1, kappa, V domains shown)
VH: B3 VH with K3Q, K13Q, T14P, K19R, E42G, E64D
VL: B3 VL with V3Q, Q8P, K9S, F10T, R41G, Q42K, D60S, S80P
modifications: DM1 linked through SPP (disulfide), 3.5-4 DM1 molecules per antibody; sites not stated
Take B8: in experiment [5], the Kd was 1.5 nM. For the same molecule, in experiment [3], the “EC50 … (WST-8), Daudi cells” value worked out at 0.4 nM and the “EC50 … (WST-8), Ramos cells” value was 0.35 nM.

B9: chCD20-20 (antibody, V domains shown)
VH: QVQLQQSGAELARPGASVKLSCKASGYTFTSYWMHWVKQRPGQGLEWIGAIYPGDGDTRYTQKFKGKATLTADKSSYTAYMQLSSLASEDSAVYYCARSPDFYGSGYDFDYWGQGTTLTVSS
VL: DIKMTQSPSSMYTSLGERVTITCKASQDINSFLSWFQQKPGKSPKTLIYRAYRLVDGVPSRFSGSGSGQDYSLTISSLEFEDMGIYYCLQSGAFPLTFGAGTKLELKR
notes: Chimeric antibody: murine CD20-20 variable regions with human constant regions (equivalent plasmids to chCD20-4), expressed in HEK-293T; the murine VL/VH entries 7 and 8 are used; also called chimeric CD20-20
B9: the “EC50 (read off the curve)” value in experiment [8] was roughly 0.7 nM. Also, the “EC50 of CDC, WSU-DLCL-2 cells, 5% human complement” value in experiment [3] was determined as 84 ng/mL. Moreover, the Kd in experiment [4] was 0.42 nM.

B10: muCD20-20 (antibody, mouse IgG1, kappa, V domains shown)
VH: B9 VH
VL: B9 VL
notes: Murine monoclonal antibody purified from hybridoma supernatant; also called murine CD20-20
Regarding B10, the Kd in experiment [4] was found to be 0.59 nM.
